Tests used:
HeLa Kyoto [1] = test: thermal stability score vs G1/S (z-score of summed log2 fold changes over temperatures); higher = more thermally stable than in G1/S
HeLa Kyoto [2] = test: solubility in G1/S (NP-40 vs SDS abundance) (log2 ratio); higher = more soluble; details: cell cycle stage: G1/S
HeLa Kyoto [3] = test: solubility change mitosis vs G1/S (difference of NP-40 vs SDS log2 ratios) (log2 ratio difference); higher = more soluble in mitosis
HeLa Kyoto [4] = test: melting temperature (median over replicates), in situ; higher = more thermally stable
[5] = cell cycle stage: early G1 (4.5 h after nocodazole release)
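For melting temperature (median over replicates), in situ in this document: HeLa Kyoto cells synchronized by double thymidine or nocodazole block, proteins quantified by TMT10plex mass spectrometry, three independent biological replicates.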
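For solubility change mitosis vs G1/S (difference of NP-40 vs SDS log2 ratios) in this document: synchronized HeLa Kyoto cells (double thymidine block for G1/S, nocodazole release for mitosis), protein amounts in NP-40 versus SDS lysates quantified by mass spectrometry, three biological replicates.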
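For solubility in G1/S (NP-40 vs SDS abundance) in this document: HeLa Kyoto cells arrested at G1/S by double thymidine block, proteins quantified by TMT10plex mass spectrometry in mild NP-40 versus SDS extracts, three biological replicates.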
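For thermal stability score vs G1/S (z-score of summed log2 fold changes over temperatures) in this document: synchronized HeLa Kyoto cells, proteins quantified by TMT10plex mass spectrometry, three biological replicates, mitosis taken 0.5 h after nocodazole release, G1/S directly after double thymidine block.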

MKMTVDFEECLKDSPRFRAALEEVEGDVAELELKLDKLVKLCIAMIDTGKAFCVANKQFMNGIRDLAQYSSNDAVVETSLTKFSDSLQEMINFHTILFDQTQRSIKAQLQNFVKEDLRKFKDAKKQFEKVSEEKENALVKNAQVQRNKQHEVEEATNILTATRKCFRHIALDYVLQINVLQSKRRSEILKSMLSFMYAHLAFFHQGYDLFSELGPYMKDLGAQLDRLVVDAAKEKREMEQKHSTIQQKDFSSDDSKLEYNVDAANGIVMEGYLFKRASNAFKTWNRRWFSIQNNQLVYQKKFKDNPTVVVEDLRLCTVKHCEDIERRFCFEVVSPTKSCMLQADSEKLRQAWIKAVQTSIATAYREKGDESEKLDKKSSPSTGSLDSGNESKEKLLKGESALQRVQCIPGNASCCDCGLADPRWASINLGITLCIECSGIHRSLGVHFSKVRSLTLDTWEPELLKLMCELGNDVINRVYEANVEKMGIKKPQPGQRQEKEAYIRAKYVERKFVDKYSISLSPPEQQKKFVSKSSEEKRLSISKFGPGDQVRASAQSSVRSNDSGIQQSSDDGRESLPSTVSANSLYEPEGERQDSSMFLDSKHLNPGLQLYRASYEKNLPKMAEALAHGADVNWANSEENKATPLIQAVLGGSLVTCEFLLQNGANVNQRDVQGRGPLHHATVLGHTGQVCLFLKRGANQHATDEEGKDPLSIAVEAANADIVTLLRLARMNEEMRESEGLYGQPGDETYQDIFRDFSQMASNNPEKLNRFQQDSQKF [ACAP2]
thermal stability score (HeLa Kyoto [1]; [5]): 0.348
thermal stability score (HeLa Kyoto [1]; cell cycle stage: mitosis): 0.369
solubility in G1/S (log2) (HeLa Kyoto [2]): -0.0242
solubility change mitosis (log2) (HeLa Kyoto [3]): -0.215
melting temperature (HeLa Kyoto [4]; cell cycle stage: G1/S): 49.8 °C

MKNQDKKNGAAKQSNPKSSPGQPEAGPEGAQERPSQAAPAVEAEGPGSSQAPRKPEGAQARTAQSGALRDVSEELSRQLEDILSTYCVDNNQGGPGEDGAQGEPAEPEDAEKSRTYVARNGEPEPTPVVNGEKEPSKGDPNTEEIRQSDEVGDRDHRRPQEKKKAKGLGKEITLLMQTLNTLSTPEEKLAALCKKYAELLEEHRNSQKQMKLLQKKQSQLVQEKDHLRGEHSKAVLARSKLESLCRELQRHNRSLKEEGVQRAREEEEKRKEVTSHFQVTLNDIQLQMEQHNERNSKLRQENMELAERLKKLIEQYELREEHIDKVFKHKDLQQQLVDAKLQQAQEMLKEAEERHQREKDFLLKEAVESQRMCELMKQQETHLKQQLALYTEKFEEFQNTLSKSSEVFTTFKQEMEKMTKKIKKLEKETTMYRSRWESSNKALLEMAEEKTVRDKELEGLQVKIQRLEKLCRALQTERNDLNKRVQDLSAGGQGSLTDSGPERRPEGPGAQAPSSPRVTEAPCYPGAPSTEASGQTGPQEPTSARA [TXLNA]
thermal stability score (HeLa Kyoto [1]; [5]): 0.411
thermal stability score (HeLa Kyoto [1]; cell cycle stage: mitosis): -0.854
solubility in G1/S (log2) (HeLa Kyoto [2]): 0.802
solubility change mitosis (log2) (HeLa Kyoto [3]): 0.248
melting temperature (HeLa Kyoto [4]; cell cycle stage: G1/S): 52.5 °C
melting temperature (HeLa Kyoto [4]; cell cycle stage: mitosis): 52.6 °C

MKPRPAGFVDNKLKQRVIQYLTSNKCGKYVDIGVLASDLQRVYSIDYGRRKRNAFRIQVEKVFSIISSEKELKNLTELEDEHLAKRARQGEEDNEYTESYSDDDSSMEDYPDPQSANHMNSSLLSLYRKGNPDSVSNTPEMEQRETTSSTPRISSKTGSIPLKTPAKDSEGGWFIDKTPSVKKDSFFLDLSCEKSNPKKPITEIQDSKDSSLLESDMKRKGKLKNKGSKRKKEDLQEVDGEIEAVLQKKAKARGLEFQISNVKFEDVGGNDMTLKEVCKMLIHMRHPEVYHHLGVVPPRGVLLHGPPGCGKTLLAHAIAGELDLPILKVAAPEIVSGVSGESEQKLRELFEQAVSNAPCIIFIDEIDAITPKREVASKDMERRIVAQLLTCMDDLNNVAATARVLVIGATNRPDSLDPALRRAGRFDREICLGIPDEASRERILQTLCRKLRLPQAFDFCHLAHLTPGFVGADLMALCREAAMCAVNRVLMKLQEQQKKNPEMEDLPSKGVQEERLGTEPTSETQDELQRLLGLLRDQDPLSEEQMQGLCIELNDFIVALSSVQPSAKREGFVTVPNVTWADIGALEDIREELTMAILAPVRNPDQFKALGLVTPAGVLLAGPPGCGKTLLAKAVANESGLNFISVKGPELLNMYVGESERAVRQVFQRAKNSAPCVIFFDEVDALCPRRSDRETGASVRVVNQLLTEMDGLEARQQVFIMAATNRPDIIDPAILRPGRLDKTLFVGLPPPADRLAILKTITKNGTKPPLDADVNLEAIAGDLRCDCYTGADLSALVREASICALRQEMARQKSGNEKGELKVSHKHFEEAFKKVRSSISKKDQIMYERLQESLSR [NVL]
thermal stability score (HeLa Kyoto [1]; [5]): 1.41
thermal stability score (HeLa Kyoto [1]; cell cycle stage: mitosis): 1.19
solubility in G1/S (log2) (HeLa Kyoto [2]): -1.77
solubility change mitosis (log2) (HeLa Kyoto [3]): 0.882
melting temperature (HeLa Kyoto [4]; cell cycle stage: G1/S): 53.8 °C
melting temperature (HeLa Kyoto [4]; cell cycle stage: mitosis): 52.7 °C

MKRRLDDQESPVYAAQQRRIPGSTEAFPHQHRVLAPAPPVYEAVSETMQSATGIQYSVTPSYQVSAMPQSSGSHGPAIAAVHSSHHHPTAVQPHGGQVVQSHAHPAPPVAPVQGQQQFQRLKVEDALSYLDQVKLQFGSQPQVYNDFLDIMKEFKSQSIDTPGVISRVSQLFKGHPDLIMGFNTFLPPGYKIEVQTNDMVNVTTPGQVHQIPTHGIQPQPQPPPQHPSQPSAQSAPAPAQPAPQPPPAKVSKPSQLQAHTPASQQTPPLPPYASPRSPPVQPHTPVTISLGTAPSLQNNQPVEFNHAINYVNKIKNRFQGQPDIYKAFLEILHTYQKEQRNAKEAGGNYTPALTEQEVYAQVARLFKNQEDLLSEFGQFLPDANSSVLLSKTTAEKVDSVRNDHGGTVKKPQLNNKPQRPSQNGCQIRRHPTGTTPPVKKKPKLLNLKDSSMADASKHGGGTESLFFDKVRKALRSAEAYENFLRCLVIFNQEVISRAELVQLVSPFLGKFPELFNWFKNFLGYKESVHLETYPKERATEGIAMEIDYASCKRLGSSYRALPKSYQQPKCTGRTPLCKEVLNDTWVSFPSWSEDSTFVSSKKTQYEEHIYRCEDERFELDVVLETNLATIRVLEAIQKKLSRLSAEEQAKFRLDNTLGGTSEVIHRKALQRIYADKAADIIDGLRKNPSIAVPIVLKRLKMKEEEWREAQRGFNKVWREQNEKYYLKSLDHQGINFKQNDTKVLRSKSLLNEIESIYDERQEQATEENAGVPVGPHLSLAYEDKQILEDAAALIIHHVKRQTGIQKEDKYKIKQIMHHFIPDLLFAQRGDLSDVEEEEEEEMDVDEATGAVKKHNGVGGSPPKSKLLFSNTAAQKLRGMDEVYNLFYVNNNWYIFMRLHQILCLRLLRICSQAERQIEEENREREWEREVLGIKRDKSDSPAIQLRLKEPMDVDVEDYYPAFLDMVRSLLDGNIDSSQYEDSLREMFTIHAYIAFTMDKLIQSIVRQLQHIVSDEICVQVTDLYLAENNNGATGGQLNTQNSRSLLESTYQRKAEQLMSDENCFKLMFIQSQGQVQLTIELLDTEEENSDDPVEAERWSDYVERYMNSDTTSPELREHLAQKPVFLPRNLRRIRKCQRGREQQEKEGKEGNSKKTMENVDSLDKLECRFKLNSYKMVYVIKSEDYMYRRTALLRAHQSHERVSKRLHQRFQAWVDKWTKEHVPREMAAETSKWLMGEGLEGLVPCTTTCDTETLHFVSINKYRVKYGTVFKAP [SIN3A]
thermal stability score (HeLa Kyoto [1]; [5]): 1.76
thermal stability score (HeLa Kyoto [1]; cell cycle stage: mitosis): 4.27
solubility in G1/S (log2) (HeLa Kyoto [2]): -0.136
solubility change mitosis (log2) (HeLa Kyoto [3]): -0.073
melting temperature (HeLa Kyoto [4]; cell cycle stage: G1/S): 48.4 °C
melting temperature (HeLa Kyoto [4]; cell cycle stage: mitosis): 49.5 °C

MKRSGTLRLLSDLSAFGGAARLRELVAGDSAVRVRGSPDGRHLLLLRPPGAVAPQLLVASRGPGAELERAWPAGQPSPLDAFFLPWPARPALVLVWESGLAEVWGAGVGPGWRPLQSTELCPGGGARVVAVAALRGRLVWCEERQARAEGPSGSPAAAFSHCVCVRTLEPSGEASTSLGRTHVLLHHCPAFGLLASCRQLFLVPTATTWPGVAHVLLIWSPGKGKVMVAAPRLGLSYSKSLNPGRGDTWDFRTLLRGLPGLLSPREPLAVHTWAPTPQGLLLLDFGGTVSLLQSHGGTRAVGTLQEAPVGPWGSAALGTFQGTLACVLGSTLELLDMGSGQLLERKVLSTDRVHLLEPPAPGMEDEEELETRGNLRLLSALGLFCVGWEAPQGVELPSAKDLVFEEACGYYQRRSLRGAQLTPEELRHSSTFRAPQALASILQGHLPPSALLTMLRTELRDYRGLEQLKAQLVAGDDEEAGWTELAEQEVARLLRTELIGDQLAQLNTVFQALPTAAWGATLRALQLQLDGNGKLRSQAPPDVWKKVLGGITAGKEPPNGILPPFELLCQCLCQLEPRWLPPFVELAQQQGGPGWGAGGPGLPLYRRALAVLGEEGTRPEALELELLLSSGRPKAVLQAVGQLVQKEQWDRALDAGLALGPSSPLLRSEIFKLLLAEFAQHRRLDAHLPLLCRLCPPELAPAELLLLLRTYLPDEVGPPTPFPEPGAEPPLTVGLLKALLEQTGAQGWLSGPVLSPYEDILWDPSTPPPTPPRDL [HPS6]
thermal stability score (HeLa Kyoto [1]; [5]): 0.139
thermal stability score (HeLa Kyoto [1]; cell cycle stage: mitosis): 0.929
solubility in G1/S (log2) (HeLa Kyoto [2]): 0.12
solubility change mitosis (log2) (HeLa Kyoto [3]): -0.149
melting temperature (HeLa Kyoto [4]; cell cycle stage: G1/S): 49.3 °C
melting temperature (HeLa Kyoto [4]; cell cycle stage: mitosis): 49.1 °C

MKRSSVSSGGAGRLSMQELRSQDVNKQGLYTPQTKEKPTFGKLSINKPTSERKVSLFGKRTSGHGSRNSQLGIFSSSEKIKDPRPLNDKAFIQQCIRQLCEFLTENGYAHNVSMKSLQAPSVKDFLKIFTFLYGFLCPSYELPDTKFEEEVPRIFKDLGYPFALSKSSMYTVGAPHTWPHIVAALVWLIDCIKIHTAMKESSPLFDDGQPWGEETEDGIMHNKLFLDYTIKCYESFMSGADSFDEMNAELQSKLKDLFNVDAFKLESLEAKNRALNEQIARLEQEREKEPNRLESLRKLKASLQGDVQKYQAYMSNLESHSAILDQKLNGLNEEIARVELECETIKQENTRLQNIIDNQKYSVADIERINHERNELQQTINKLTKDLEAEQQKLWNEELKYARGKEAIETQLAEYHKLARKLKLIPKGAENSKGYDFEIKFNPEAGANCLVKYRAQVYVPLKELLNETEEEINKALNKKMGLEDTLEQLNAMITESKRSVRTLKEEVQKLDDLYQQKIKEAEEEDEKCASELESLEKHKHLLESTVNQGLSEAMNELDAVQREYQLVVQTTTEERRKVGNNLQRLLEMVATHVGSVEKHLEEQIAKVDREYEECMSEDLSENIKEIRDKYEKKATLIKSSEE [NDC80]
thermal stability score (HeLa Kyoto [1]; [5]): 0.223
thermal stability score (HeLa Kyoto [1]; cell cycle stage: mitosis): 0.715
solubility in G1/S (log2) (HeLa Kyoto [2]): 0.548
solubility change mitosis (log2) (HeLa Kyoto [3]): 0.0863
melting temperature (HeLa Kyoto [4]; cell cycle stage: G1/S): 47.4 °C
melting temperature (HeLa Kyoto [4]; cell cycle stage: mitosis): 47.7 °C

MKRSVAVWLLVGLSLGVPQFGKGDICDPNPCENGGICLPGLADGSFSCECPDGFTDPNCSSVVEVASDEEEPTSAGPCTPNPCHNGGTCEISEAYRGDTFIGYVCKCPRGFNGIHCQHNINECEVEPCKNGGICTDLVANYSCECPGEFMGRNCQYKCSGPLGIEGGIISNQQITASSTHRALFGLQKWYPYYARLNKKGLINAWTAAENDRWPWIQINLQRKMRVTGVITQGAKRIGSPEYIKSYKIAYSNDGKTWAMYKVKGTNEDMVFRGNIDNNTPYANSFTPPIKAQYVRLYPQVCRRHCTLRMELLGCELSGCSEPLGMKSGHIQDYQITASSIFRTLNMDMFTWEPRKARLDKQGKVNAWTSGHNDQSQWLQVDLLVPTKVTGIITQGAKDFGHVQFVGSYKLAYSNDGEHWTVYQDEKQRKDKVFQGNFDNDTHRKNVIDPPIYARHIRILPWSWYGRITLRSELLGCTEEE [EDIL3]
thermal stability score (HeLa Kyoto [1]; [5]): 1.05
thermal stability score (HeLa Kyoto [1]; cell cycle stage: mitosis): 0.661
solubility in G1/S (log2) (HeLa Kyoto [2]): -0.122
solubility change mitosis (log2) (HeLa Kyoto [3]): -0.0391
melting temperature (HeLa Kyoto [4]; cell cycle stage: mitosis): 55.6 °C
